Data published in patent US11505811B2, “Method for the preparation of 2,4-dihydroxybutyrate” (ADISSEO FRANCE S.A.S., priority 2012, dated 2022).

Columns and labels:
Type in all cases: biochemical
[1] = homoserine transaminase activity, coupled dehydrogenase assay; conditions: measured at 50 mM homoserine; 2-oxoglutarate as acceptor
Procedure: (§1) Enzymatic assays: Transaminase activity of several candidate aminotransferases was quantified with 2-oxoglutarate as the amino group acceptor. Transaminase reactions were carried out using homoserine and the preferred amino acid of the enzymes. The reactions were followed by the amino acid-dependent oxidation of NADH in the coupled dehydrogenase reaction.
(§2) Transaminase Assays (Reaction Scheme)
(§3) Transaminase: Amino acid+2-oxoglutarate→2-oxo-acid+glutamate
(§4) Dehydrogenase: 2-oxo-acid+NADH→2-hydroxy-acid+NAD^+
The reaction mixture contained 60 mM Hepes (pH 7), 50 mM potassium chloride, 5 mM MgCl2, 4 mM 2-oxoglutarate, 0.1 mM pyridoxal-5′-phosphate (PLP), 0.25 mM NADH, (optionally 5 mM fructose-1,6-bisphosphate) (all products from Sigma), 4 Units/mL of auxiliary 2-hydroxyacid dehydrogenase, and appropriate amounts of purified aminotransferase or cell extract. The auxiliary dehydrogenase enzyme was purified PanE from L. lactis in case of the amino acids phenylalanine and leucine (Chambellon, Rijnen, Lorquet, Gitton, van HylckamaVlieg, Wouters, & Yvon, 2009), malate dehydrogenase (Sigma) in case of aspartate, and rabbit muscle (L)-lactate dehydrogenase (Sigma) when homoserine was used as the starting substrate. Reactions were started by adding 50 mM of the amino acid.
(§5) Enzymatic assays were carried out at 37° C. in 96-well flat bottomed microtiter plates in a final volume of 250 μL. The reactions were followed by the characteristic absorption of NAD(P)H at 340 nm (εNADPH=6.22 mM^−1 cm^−1) in a microplate reader (BioRad 680XR).

[2] = pyruvate reductase activity, NADH absorption at 340 nm; conditions: for Max. specific activity, natural substrate: natural substrate of Ldh: pyruvate, purified enzyme, 37° C., pH 7; for Max. specific activity, Pyruvate: L. lactis Ll-LdhA mutants
Procedure: (§6) Enzymatic assays: The reaction mixture contained 60 mM Hepes (pH 7), 50 mM potassium chloride, 5 mM MgCl2, 0.25 mM NADH, (optionally 5 mM fructose-1,6-bisphosphate) (all products from Sigma), and appropriate amounts of purified malate or lactate dehydrogenase or cell extract. Reactions were started by adding appropriate amounts of 2-oxo-4-hydroxybutyrate (OHB), pyruvate, or oxaloacetate (OAA). Enzymatic assays were carried out at 37° C. in 96-well flat bottomed microtiter plates in a final volume of 250 μL. The reactions were followed by the characteristic absorption of NADH at 340 nm (εNADH=6.22 mM^−1 cm^−1) in a microplate reader (BioRad 680XR).

[3] = OHB reductase activity, NADH absorption at 340 nm
Procedure: as §6
OHB was synthesized by incubating 125 mM homoserine with snake venom (L)-amino acid oxidase (1.25 U/mL, Sigma) and catalase (4400 U/mL, Sigma) in 100 mM Tris buffer at pH 7.8 for 90 min at 37° C. Subsequently, the reaction mixture was purified on an Amicon™ Ultra centrifugal filter with a cut-off of 10 kDa to eliminate the enzymes (method adapted from Wellner & Lichtenberg, 1971).
OHB was quantified by mixing 100 μL of the tested solution with 1 mL of a solution containing 1 M sodium arsenate and 1 M boric acid at pH 6.5. The mixture was incubated at room temperature for 30 min and the absorbance at 325 nm was used to quantify OHB. The relation between absorbance and concentration of the ketone was calibrated using pyruvate solutions of known concentrations (method adapted from (Wellner & Lichtenberg, 1971)). The typical OHB yield of the method was 90%.

[4] = transaminase activity on preferred amino acid (L), coupled dehydrogenase assay; conditions: superscript (L); 50 mM amino acid; 2-oxoglutarate as acceptor
Procedure: as §1, §2, §3, §4
The reaction mixture contained 60 mM Hepes (pH 7), 50 mM potassium chloride, 5 mM MgCl2, 4 mM 2-oxoglutarate, 0.1 mM pyridoxal-5′-phosphate (PLP), 0.25 mM NADH, (optionally 5 mM fructose-1,6-bisphosphate) (all products from Sigma), 4 Units/mL of auxiliary 2-hydroxyacid dehydrogenase, and appropriate amounts of purified aminotransferase or cell extract. […]
as §5

[5] = when not saturated, activity estimated at 20 mM substrate

Molecule	Max. specific activity on Homoserine [1]	Max. specific activity, natural substrate [2]	Max. specific activity, OHB [3, 5]	further results
Ec-TyrB: aromatic-amino-acid transaminase from E. coli, SEQ ID No. 62 (protein, listed as Escherichia coli) VFQKVDAYAGDPILTLMERFKEDPRSDKVNLSIGLYYNEDGIIPQLQAVAEAEARLNAQPHGASLYLPMEGLNCYRHAIAPLLFGADHPVLKQQRVATIQTLGGSGALKVGADFLKRYFPESGVWVSDPTWENHVAIFAGAGFEVSTYPWYDEATNGVRFNDLLATLKTLPARSIVLLHPCCHNPTGADLTNDQWDAVIEILKARELIPFLDIAYQGFGAGMEEDAYAIRAIASAGLPALVSNSFSKIFSLYGERVGGLSVMCEDAEAAGRVLGQLKATVRRNYSSPPNFGAQVVAAVLNDEALKASWLAEVEEMRTRILAMRQELVKVLSTEMPERNFDYLLNQRGMFSYTGLSAAQVDRLREEFGVYLIASGRMCVAGLNTANVQRVAKAFAAVM	0.057 μmol/(min mgprot)	–	–	–
Bs-Ldh: (L)-lactate dehydrogenase of Bacillus subtilis, SEQ ID NO: 8 (protein, listed as Bacillus subtilis) MMNKHVNKVALIGAGFVGSSYAFALINQGITDELVVIDVNKEKAMGDVMDLNHGKAFAPQPVKTSYGTYEDCKDADIVCICAGANQKPGETRLELVEKNLKIFKGIVSEVMASGFDGIFLVATNPVDILTYATWKFSGLPKERVIGSGTTLDSARFRFMLSEYFGAAPQNVHAHIIGEHGDTELPVWSHANVGGVPVSELVEKNDAYKQEELDQIVDDVKNAAYHIIEKKGATYYGVAMSLARITKAILHNENSILTVSTYLDGQYGADDVYIGVPAVVNRGGIAGITELNLNEKEKEQFLHSAGVLKNILKPHFAEQKVN	–	170 µmol/mg/min	15.7 µmol/mg/min	–
Sc-ARO8: aromatic-amino-acid transaminase from Saccharomyces cerevisiae, SEQ ID No. 70 (protein, listed as Saccharomyces cerevisiae) MTLPESKDFSYLFSDETNARKPSPLKTCIHLFQDPNIIFLGGGLPLKDYFPWDNLSVDSPKPPFPQGIGAPIDEQNCIKYTVNKDYADKSANPSNDIPLSRALQYGFSAGQPELLNFIRDHTKIIHDLKYKDWDVLATAGNTNAWESTLRVFCNRGDVILVEAHSFSSSLASAEAQGVITFPVPIDADGIIPEKLAKVMENWTPGAPKPKLLYTIPTGQNPTGTSIADHRKEAIYKIAQKYDFLIVEDEPYYFLQMNPYIKDLKEREKAQSSPKQDHDEFLKSLANTFLSLDTEGRVIRMDSFSKVLAPGTRLGWITGSSKILKPYLSLHEMTIQAPAGFTQVLVNATLSRWGQKGYLDWLLGLRHEYTLKRDCAIDALYKYLPQSDAFVINPPIAGMFFTVNIDASVHPEFKTKYNSDPYQLEQSLYHKVVERGVLVVPGSWFKSEGETEPPQPAESKEVSNPNIIFFRGTYAAVSPEKLTEGLKRLGDTLYEEFGISK	0.076 μmol/(min mgprot)	–	–	–
Ec-LdhA: (D)-lactate dehydrogenase from Escherichia coli, SEQ ID NO: 4 (protein, listed as Escherichia coli) MKLAVYSTKQYDKKYLQQVNESFGFELEFFDFLLTEKTAKTANGCEAVCIFVNDDGSRPVLEELKKHGVKYIALRCAGFNNVDLDAAKELGLKVVRVPAYDPEAVAEHAIGMMMTLNRRIHRAYQRTRDANFSLEGLTGFTMYGKTAGVIGTGKIGVAMLRILKGFGMRLLAFDPYPSAAALELGVEYVDLPTLFSESDVISLHCPLTPENYHLLNEAAFEQMKNGVMIVNTSRGALIDSQAAIEALKNQKIGSLGMDVYENERDLFFEDKSNDVIQDDVFRRLSACHNVLFTGHQAFLTAEALTSISQTTLQNLSNLEKGETCPNELV	–	265 µmol/mg/min	0.56 µmol/mg/min	–
Ll-AraT: aromatic-amino-acid transaminase from L. lactis, SEQ ID No. 66 (protein, listed as Lactococcus lactis) MDLLKKFNPNLDKIEISLIRQFDQQVSSIPDVIKLTLGEPDFYTPEHVKQAGIVAIENNQSHYTGMAGLLELRQAASEFMNKKYGLSYAAEDEILVTVGVTEAISSVLLSILVAGDEVLIPAPAYPGYEPLITLAGGSLVEIDTRANDFVLTPEMLEQAIVEREGKVKAVILNYPANPTGVTYNRGQIKALAEVLKKHEVFVIADEVYSELNYTDQPHVSIAEYAPEQTIVLNGLSKSHAMTGWRIGLIFAARELVAQIIKTHQYLVTSASTQSQFAAIEALKNGAYDALPMKKEYLKRRDYIIEKMSDLGFKIIEPDGAFYIFAKIPADLEQDSFKFAVDFAKENAVAIIPGIAFGQYGEGFVRLSYAASMDMIEQAMARLTDYVTKKRG	0.109 μmol/(min mgprot)	–	–	–
Ll-BcaT: branched-chain-amino-acid transaminase from Lactococcus lactis, SEQ ID No. 68 (protein, listed as Lactococcus lactis) MAINLDWENLGFSYRNLPFRYIARFKDGKWSAGELTGDNQLHISESSPALHYGQQGFEGLKAYRTKDGSIQLFRPDQNAARLQNTARRLCMAEVPTEMFIDAVKQVVKANEDFVPPYGTGATLYLRPLLIGVGDVIGVKPADEYIFTVFAMPVGSYFKGGLAPSKFVISRDYDRAAPLGTGGAKVGGNYAASLQAEVGAKASGYADAIYLDPSTHTKIEEVGAANFFGITADNEFITPLSPSILPSITKYSLLYLAEHRLGLKAIEGEVYAKDLGKFVEAGACGTAAIISPIGRIDDGEDSYIFHSETEVGPTVKRLYDELVGIQFGDVEAPEGWIVKVD	0.028 μmol/(min mgprot)	–	–	Max. specific activity on preferred amino acid (L) [4]: 30.39^(L) μmol/(min mgprot)
Q85N: L. lactis lactate dehydrogenase A, Ll-LdhA, mutant Q85N, SEQ ID No. 30 (protein, listed as Lactococcus lactis) MADKQRKKVILVGDGAVGSSYAFALVNQGIAQELGIVDLFKEKTQGDAEDLSHALAFTSPKKIYSADYSDASDADLVVLTSGAPNKPGETRLDLVEKNLRITKDVVTKIVASGFKGIFLVAANPVDILTYATWKFSGFPKNRVVGSGTSLDTARFRQALAEKVDVDARSIHAYIMGEHGDSEFAVWSHANVAGVKLEQWFQENDYLNEAEIVELFESVRDAAYSIIAKKGATFYGVAVALARITKAILDDEHAVLPVSVFQDGQYGVSDCYLGQPAVVGAEGVVNPIHIPLNDAEMQKMEASGAQLKAIIDEAFAKEEFASAVKN	–	–	–	Max. specific activity, Pyruvate [2]: 184 µmol/mg/min; Max. specific activity, OHB ([3]; L. lactis Ll-LdhA mutants): 63.9 µmol/mg/min
Q85NI226V: L. lactis lactate dehydrogenase A, Ll-LdhA, mutant Q85N I226V, SEQ ID No. 32 (protein, listed as Lactococcus lactis) MADKQRKKVILVGDGAVGSSYAFALVNQGIAQELGIVDLFKEKTQGDAEDLSHALAFTSPKKIYSADYSDASDADLVVLTSGAPNKPGETRLDLVEKNLRITKDVVTKIVASGFKGIFLVAANPVDILTYATWKFSGFPKNRVVGSGTSLDTARFRQALAEKVDVDARSIHAYIMGEHGDSEFAVWSHANVAGVKLEQWFQENDYLNEAEIVELFESVRDAAYSIVAKKGATFYGVAVALARITKAILDDEHAVLPVSVFQDGQYGVSDCYLGQPAVVGAEGVVNPIHIPLNDAEMQKMEASGAQLKAIIDEAFAKEEFASAVKN	–	–	–	Max. specific activity, Pyruvate [2]: 11.5 µmol/mg/min; Max. specific activity, OHB ([3]; L. lactis Ll-LdhA mutants): 4.9 µmol/mg/min
Gs-Ldh: (L)-lactate dehydrogenase of Geobacillus stearothermophilus, SEQ ID NO: 10 (protein, listed as Geobacillus sterarothermophillus) MKNNGGARVVVIGAGFVGASYVFALMNQGIADEIVLIDANESKAIGDAMDFNHGKVFAPKPVDIWHGDYDDCRDADLVVICAGANQKPGETRLDLVDKNIAIFRSIVESVMASGFQGLFLVATNPVDILTYATWKFSGLPHERVIGSGTILDTARFRFLLGEYFSVAPQNVHAYIIGEHGDTELPVWSQAYIGVMPIRKLVESKGEEAQKDLERIFVNVRDAAYQIIEKKGATYYGIAMGLARVTRAILHNENAILTVSAYLDGLYGERDVYIGVPAVINRNGIREVIEIELNDDEKNRFHHSAATLKSVLARAFTR	–	87.7 µmol/mg/min	66.8 µmol/mg/min	–
